According to US20250277026A1:

Key:
human Claudin-4 (human) [1] = molecular target: human Claudin-4 (human) (UniProt O14493); assay: FACS, Claudin-4-CHO-K1 cells
human Claudin-4 (human) [2] = molecular target: human Claudin-4 (human) (UniProt O14493); assay: FACS, MCF7 cells (endogenous CLDN3 and CLDN4)
human Claudin-3 (human) [3] = molecular target: human Claudin-3 (human) (UniProt O15551); assay: FACS, Claudin-3-CHO-K1 cells (data not shown in the figures)
human Claudin-4 (human) [4] = molecular target: human Claudin-4 (human) (UniProt O14493); assay: FACS, Claudin-4-CHO-K1 cells, serial dilution of the antibody, MFI
human Claudin-3 (human) [5] = molecular target: human Claudin-3 (human) (UniProt O15551); assay: FACS, Claudin-3-CHO-K1 cells, 5 µg/ml
human Claudin-3 (human) [6] = molecular target: human Claudin-3 (human) (UniProt O15551); assay: FACS, MCF7 cells (endogenous CLDN3 and CLDN4)
human Claudin-3 (human) [7] = molecular target: human Claudin-3 (human) (UniProt O15551); assay: FACS, Claudin-3-CHO-K1 cells, serial dilution of the antibody, MFI

Chain of human Claudin-3 (human) (O15551 whole entry): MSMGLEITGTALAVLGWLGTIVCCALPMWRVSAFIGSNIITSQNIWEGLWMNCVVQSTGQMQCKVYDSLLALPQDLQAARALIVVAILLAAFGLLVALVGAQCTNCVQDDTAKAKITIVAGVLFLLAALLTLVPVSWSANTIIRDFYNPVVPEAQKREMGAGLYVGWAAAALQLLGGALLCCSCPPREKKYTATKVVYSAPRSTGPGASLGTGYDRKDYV

fold MFI over isotype control (human Claudin-4 (human) [1])	fold MFI over isotype control (human Claudin-4 (human) [2])	fold MFI over isotype control (human Claudin-3 (human) [3])	EC50 (read off the curve) (human Claudin-4 (human) [4])	fold MFI over isotype control (human Claudin-3 (human) [5])	fold MFI over isotype control (human Claudin-3 (human) [6])	EC50 (read off the curve) (human Claudin-3 (human) [7])	Substance
33 fold	15 fold	9.7 fold	2 nM	–	–	–	anti-Claudin-4 antibody MAB4219 (R&D)
–	–	–	–	61 fold	20 fold	0.6 nM	anti-claudin 3 antibody MAB4620 (R&D)
